Laboratory results reported in patent US20030228593A1.

Molecular target: biotinylated 151AcPhe mutant GFP [GFP: P42212]
Experiment: SAv-dependent gel-shift assay, 10% native PAGE

- percent of GFP band retarded: 80%
Substance: streptavidin (from UniProt P22629 37-163)
